Test results: patent US20230218519A1, “FLUID GEL COMPOSITIONS” (The University of Birmingham, priority 2020, published 2023)

Assays:
[1] = Release assay from PEG-DA fluid gel (trans-well, UV/Vis); assay type: physicochemical; conditions: 3% v/v PEG-DA fluid gel (Example 5.3, 500 rpm), into PBS at 37° C., 5 hrs
Protocol: • Active amounts: […] • Standard concentrations of active in PBS were prepared. • Standards were pipetted into a quartz cuvette (1 mm pathlength). • UV/Vis spectroscopy was used to measure absorbance between 200 and 700 nm wavelength. • Curves were plotted and used to determine standard curves which were used to determine concentrations. • 0.5 ml PBS was added to the well of a 24 well plate. • The PBS was incubated at 37° C. to equilibrate. • 0.1 ml of the fluid gel containing active was placed in a trans-well insert. • The trans-well insert was placed into a well containing PBS. • After a given time period the trans-well insert was removed and placed in a fresh well of PBS. • The release media was then removed and analysed using […] spectroscopy. Concentrations were derived from the standard curves and cumulative release plotted as a function of time.

[2] = tested on: fibrin gel; assay: Matrix breakdown assay (fibrin gel); assay type: biochemical; conditions: fibrin gel 8.5 mg/ml, 60° C., images at various timepoints
Protocol: • Add proteinase K (10 mg) to PBS to make a total volume of 1 ml. • Mix well on a vortex mixer until dissolved.
• Add 0.9 ml of 3% v/v PEG-DA fluid gel prepared according to Example 5.3 to an Eppendorf. • To each gel add 0.1 ml of active in PBS. • Mix well using a vortex mixer. • Refrigerate for 24 hours before testing.
• 0.5 ml of fibrin gel (8.5 mg/ml) was formed in the wells of a 24 well plate. • 0.5 ml of PBS was added to each well. • 0.1 ml of fluid gel containing active was added to a trans-well insert and placed above the fibrin gel. • Samples were incubated at 60° C. to activate the proteinase K. • Images were taken at various timepoints and compared to (a) the control wells containing only fibrin gel+PBS; and (b) wells containing fibrin gel+proteinase k (no fluid gel carrier).

B1: proteinase K only: extracellular matrix remodelling agent, a proteinase (protein, UniProt P06873 106-384, looked up)
Proteinase K: AAQTNAPWGLARISSTSPGTSTYYYDESAGQGSCVYVIDTGIEASHPEFEGRAQMVKTYYYSSRDGNGHGTHCAGTVGSRTYGVAKKTQLFGVKVLDDNGSGQYSTIIAGMDFVASDKNNRNCPKGVVASLSLGGGYSSSVNSAAARLQSSGVMVAVAAGNNNADARNYSPASEPSVCTVGASDRYDRRSSFSNYGSVLDIFGPGTSILSTWIGGSTRSISGTSMATPHVAGLAAYLMTLGKTTAASACRYIADTANKGDLSNIPFGTVNLLAYNNYQA
- release of active agent from fluid gel [1]: able to release
- fibrin gel break down [2]: faster
